Reference: the DeepSol protein solubility set

assay: soluble on expression in E. coli; label from the status in PepcDB or PDB records

Sequence	soluble on expression in E. coli
MSLDGGTLGATNRFLTRDGSPWIPIAGEMHYSRIAAERWDTELAKMAAAGIDVVSTYVFWNHHEEREGEWDFSGNRNVRRFVELCARHGLHVIVRLGPFCHGEVRNGGLPDWLYGKSYEVRSLDAGFLDAVRGLYAHIAQQLRGLYFKDGGPIIAAQVDNEYMASSAPWEMTTGISREWVPSGHDGAGYLERLRDIAIEEGIDPPMFTCTGWQSPVPDDMLPLWGGYAYRPWLFYDGVGAEGMTEHPATDEYRYRRLHGSSTSDGFDPPYDPDSRPYACCEMGGGMFNSYDYRFVLPKRSVDAMANIKLGSGCDFLGYYMFHGGTNPKGAAGFLNEGQTPKRSYDFQAPLGKFGQVRESYRRLRTLHEFVKAFGPELAGMPVSLQDGQDRIDPSDSETLRYAVRSDGERGFVSIDNFQDHARVPSRHGEQIDVTTGTGERIRFTGIGLAEGENCILPFNMDLDGVRLVRANLQPVTVLRVPGRPFRTFVFLKPDGMDELTFHFEGDIQDVTVGKADFERFMVRDAAEIVCVTRALAGRMTVLDGGLAFVDDDNALLYEDGDGWTLESPRAENGIAAYPEGLLGSPRPVEPVSVYARMRRLHADRYEIALPAGMGRLFRDQRQVADVMLNIAYQGDIGWLFCGDVLIADNFCNGETWQVGLRDYADAIDAAGGKLTLVVTPLRRGVRVKVTSSMAARLEQSDACVADVTDVYATPVYHMPVGEGHHHHHH	not soluble
MKMMDANEIISFIQNSTKSTPVKVYVKGELEGINFGESAKAFINGNTGVVFGEWSEIQTAIEENQSKIEDYVVENDRRNSAIPMLDL	not soluble
ANLYWFRADWFDDADTKAAFKEKYGYDLGVPLNWSAYEDIAEFFTGRDMSALGGPKSAYGSMDYGKKDPSLGWRYTDAWMSMAGMGDKGDPNGLPVDEWGIRVDENSRPVGSCVARGGATNDAAAVYAITKSIEWLQKYAPPQAAGMTFSESGPVPAQGEVAQQIFWYTAFTADMVKEGLPVMNEDGTPKWRMAPSPHGAYWSEGTKVGYQDVGSWTLLKSTPDERAKAAWLYAQFVSSKTVDVKKSHVGLTFVRESTIQHQ	not soluble
MSELRALIREILVEELAALRAAPAATPACEMVDVHSDEALMAFARDLLGRANDPEFVRCVQSGQHRFTLAPTVAQPPGQRPAPAASFTLVASAPAEAPRFEKALVTERDVAAIPRDQSRIRLARNTRLTPLASDELRRRGIRIERTQK	not soluble
MKPIQVEREIFRYEQGAIKHIEDSIVTEFPVTIKMNGQEFVTMVSTPEYIEDMVIGFLASEGIIRKYEDIDSVWVQEKEGFVHVTTTKVNPYYEQMQNKRYITSCCGMSRQGFVFANDALSAKKMKGVHVQVAADDCFRLMKEMQQSADTFHRTGGVHNAALCDVNGIILSRMDIGRHNALDKIYGYCLRNDISIKDKIIVFSGRISSEILLKVAKIGCEIILSKSAPTELALQLAEDLGITTIGFIRNHSLNVYTHPERVLNIKLEHHHHHH	soluble
DAKEKRLREIQFEKEMIERDMREYRGFSRAVRAVFEEKERFPGLVDVVSNLIEVDEKYSLAVSVLLGGTAQNIVVRNVDTAKAIVEFLKQNEAGRVTILPLDLIDGSFNRISGLENERGFVGYAVDLVKFPSDLEVLGGFLFGNSVVVETLDDAIRMKKKYRLNTRIATLDGELISGRGAITGGREERSSNVFERRIKLKHLEQEMEETERQI	soluble
MIITIARQCGCGGHEVARILANKLGMELFDKKKLLEEANQLGQAEEHSNFFNEVPINSLLYGIAMGFGNTKPMDKSLKLVKAITENKDAIIIGRCANIIYKDSKDVTSVYLFADKEFRIKYLMERDGISEKEAEKYIKEVDEKRTSFHKYCTDTVWGDAKEYQLCLDTGKIGFEKTAELIMNYINAKKES	not soluble
GPGSMTSASKKSTEENSEEVECTNSSRKRRMRQRERNIYISECHGIKELSSLVRRGFQQIMTARGLFISGCPDLVKLDDGTSGEEEGGEYYRQLEEVQVSRCPRLTDLSGLGKCKYLKVVDISDCRKLENIGELKSCRTLEKLALSRCTGLVDVNLRGFGKLLSFDIFKCANLTKICGLFGCPILETLTVEECGDVKEMEVRTIRGRVETLRIAGKRAMENVGFLCLFTNMKKLALCGCVGTVAEVLGEEAGGLPRLKWLELIGIRMERQMKDKPGNGVAATEEGNNAKRVLPMIVQNE	not soluble
MRVVVSIGGSVLAPGLDADQVDAHADAINELTDAGCEVGAVVGGGGVARDYIGTARELGANEIELDDIGVDVTRLNARLLIAALGGDAAPSPAEDYEDAGEAMRRGDIAVMGGVVAGQTTDAVSAALAEYTDADLLLYATSVPGVFSADPNEDADAEHFTRMTAGELVDIIADIEMNAGSSAPVDLLAAKLIERSGVRTIVLDGTDPRRIVDAVRFGEHDGTDVIPDGTDNQMTYWADNQELEHHHHHH	not soluble
MGSDKIHHHHHHMAKIESNDSHLRGILKDELYYQIPIYQRPYQWTEENCEKLLDDLFFNYEDDREGDYFCGSLVLIAISKDSKATTYDVVDGQQRLSTFILLAKVLADLYNDCLDPKNLEHLQEGWKDRHTERKRLSFNTIGSNAEYDFQDALEHFNDSQASKNKNNKNNYLKNAICLKDYLMKKEIKNINDFIEWLYSNVKFITIICPNIDKALRIFNVLNARGLPLNATDIFKGELLKHAKEHEREEFVSRWNALSQKCSDNDLTMETLFSWYNLSQSGNF	not soluble
MPTLTARSVIPPYMLRRIIEHGSLPQRDCALHTLNHVQSLLGNKPLRAPGAKTSTGGEVIRDIYDAENSTQLPGKQVRNEGQASNHDVAVDEAYDYLGVTYDFFWQAFKRNSLDNQGLPLTGSVHYGKEYQNAFWNGQQMVFGDGDGEIFNRFTIAIDVVGHALAHGVTESEAGLIYFQQAGALNESLSDVFGSLVKQFHLKQTADKADWLIGEGLLAKGINGKGLRSMSAPGTAYDDPLLGKDPQPASMKDYIQTKEDNGGVHLNSGIPNRAFYLAATALGGYAWEKAGYIWYDTLCDKALPQDADFATFARTTVKHAEQRFDSKVAQKVQQAWHQVGVA	soluble
MGSDKIHHHHHHMDDLRDSLDRIKSICSEIVVQFESSDVAESLKALQKAVNEAAKSWSGSWLGYHSRVYYNQLQPVPPGARFSQEWGLSDGLSNETRGDWCEYDFDSIYNILKSKAINFSLEQLNELANYANEEIPDLREELISIIFSCLASGEDTYLDRLKQEAELCKTSSVGEFVDYLRGGGQFFSRDRVAVLSGSQTPPHIYLQAQLLAVQSPSTVAKSLKKIANRLALHLTNKSRTYMYSSQPGTHVFIGHGHSPLWRDLKDFISERLKLPWDEFNRLPIAGINNTVRLSQMLDSAAIAFLIMTGEDEQSDLKLRARMNVIHEAGLFQGRLGFRRAILLLEEGCENFSNVDGIGYINFPRGNIKACFEDVRMVLEREGLV	not soluble
MTQIVVGENEHIESALRRFKREVSKAGIFQDMRKHRHFETPIEKSKRKKLALHKQSKRRFRTLEHHHHHH	not soluble
MAGEGQIRLTDSCVQRLLEITEGSEFLRLQVEGGGCSGFQYKFSLDTVINPDDRVFEQGGARVVVDSDSLAFVKGAQVDFSQELIRSSFQVLNNPQAQQGCSCGSSFSIKL	soluble
MGSDKIHHHHHHMGVMMKQKIKILTVIGLMTVGMSACHNTSKPSNTDSVFSLTGKKRQQIVKQVRQRYYFQQLSKTEQENYLTLYDSLAQFREIISLTPASKKSLIKTIDAFVMDNPEFYWITSADYRFEFSDQTVFVTFPIPEDAKNIYQDLQAIGNDIVANTPSKDRYEQVKYFYEVIIRDTDYNKKAFEAYQSGSQAQVASNQDIKSVFIDHLSVCNGYAQAFQFLCQKAGIPVAYIRGTGTSQQPQQSFAHAWNAVQINNTYYGVDVTWGDPVFDNHLSHQKQGTINYSFLCLPDYLMALSHQPSKDIAFNTKERFENVWTIPSCTDDSLLYSKRHQSYISTFDSDAILASLENQLLNRQEPLSLQFAHQDDYQQMVTDLTTNQTGYHNLFNQYWNNYTGFTYGLLPETLSISFASRN	not soluble
PRHRLLVVGAGQLSRYLCEMAIALDFDVTVSDPRQEYRAGWQVEGVALTTAMPDDMVIAARPDARTAVIALTHDPKLDDLALIDALQTPAFYVGALGSRANHARRVARLREHFGLTPAQLARLRGPAGIY	not soluble
MSLGMRDVAKEAGVSLSTVSLVVNKTGYVSDDMRARVEAAMKELNYVPNELARNLYKNRTNLVGVIVPTIRHPFFATLTAHLQRELAAQGLRTMLCSTADAENGEVEYVDMLRRHMMDGIIVCSHTTHPNDYWTSIHRPIVAFDRVLGGGIASIGSDHEQGGRLMAHMLVNTGAHHVVMIGGPRDQFFDLAARNGDSPDDFDLHKTTFPTVRYYLALEQELKAAGVRYEYVEAGNVEDFQGYKNAVNAVLNSMPVDGVDAVVSSDIGAALCVREAMRRHISIPRDLQIIAYDGTYLTDLAGMKMTAVAQNFDKIAQVAVGNIVRAIAKEGDAKADTTSATGRKPYEPDVLIPVTLKLGDTTREGHHHHHH	soluble
HQIGEDTYIVQGTMTLNDFNNYFDVELESDDVDTIAGYYLTGVGTIPTTEKLSYELVSQNKQFILTNDKVKNGRVTKVKVQITEVEIEEETE	not soluble
GMTLTRDSLLTLEAYAKVRRQEHARVIAHKKRRAVSIGNHLRLLFEDETTIRYQIHEMLHIEKIFDEDGIQAELDAYLPLVPDGSNLKATLQIEYENETQRRAALARLVGIEDRVFLRVDDEAPVYAIADEDLERDTAEKTSAVHFLRFELGDAMKAKLKAGAPLSIGCDHPHYPIQAARIDPDVAASLAGDLD	soluble
MGSDKIHHHHHHMTNAVYTLIVRALSGIVSERAAETLLRAALREQGLTAEGVTAGEMQRVLSGPLLTRLSGVLPPERARAELGNLAAQLQKHYPKAPTLFSSPAATWDETTSTHWEDIDFSADDFEFDDPEYTATPPERQYALGTAAGQEALIQDLGRIPGVQGVMVCRASGEVLRERALSGSRNLSSVIAATALLFQKRALNLMSADMGGQTVCMRPVGAYCVAVVAGPQVNIGRLLAELQQVREAA	not soluble
MNNSEGLKSFQQSLADLPQWVSERLLQQINQLTNYEPVIGIMGKTGVGKSSLCNALFAGDISPVSDVAACTREPLRFRLQVGDRYITLMDLPGVGESGARDTEYAALYREQLPRLDLVLWLIKADDRALTVDEHFYHQVIGEVYRHKVLFVISQSDKAEPTSGGGQLSTAQKQNISRKICLLHELFQPVHPVCAVSVRLQWGLKVMAERMIKCLPREATSPVVSQLHPSFRTTVVREQARSDFGETVGAVLDSISAFPLIPAPVRAVIQAVRTTVVSVARAVWDFFF	soluble
MLEFQTPELLRMPLQELCLHTKLLAPVNCPIADFLMKAPEPPPALIVRNAVQMLKTIDAMDTWEDLTELGYHLADLPVEPHLGKMVLCAVVLKCLDPILTVACTLAYRDPFVLPTQASQKRAAMLCRKRFTAGAFSDHMALLRAFQAWQKARSDGWERAFCEKNFLSQATMEIIIGMRTQLLGQLRASGFVRARGGGDIRDVNTNSENWAVVKAALVAGMYPNLVHVDRENLVSTGPKEKKVRFHPASVLSQPQYKKIPPANGQAAAIKALPTDWLIYDEMTRAHRIANIRCCSAVTPVTILVFCGPARLASNALQEPSSFRVDGIPNDSSDSEMEDKTTANLAALKLDEWLHFTLEPEAASLLLQLRQKWHSLFLRRMRAPSKPWSQVDEATIRAIIAVLSTEEQSAGLQQPSGIGQRPRPMSSEELPLASSWRSNNSRKSSADTEFSDECTTAERVLMKSPSPALHPPRKYKDRGILHPKRGTEDRSDQSSLKSTDSSSYPSPCASPSPPSSGKGSKSPSPRPNMPVRYFIMKSSNLRNLEISQQKGIWSTTPSNERKLNRAFWESSIVYLVFSVQGSGHFQGFSRMSSEIGREKSQDWGSAGLGGVFKVEWIRKESLPFQFAHHLLNPWNDNKKVQISRDGQELEPQVGEQLLQLWERLPLGEKNTTD	soluble
